The data set in a line: yeast display, Sf9 membrane polyspecificity reagent, FACS + sequencing; frameworks hold sequencing errors. In outline: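 Galactose-induced (36–48 hours) yeast carrying a synthetic nanobody display library were exposed to 10% biotinylated, detergent-solubilized Sf9 membrane reagent at 4 °C for 1 hour. FACS followed streptavidin microbead enrichment, using low and high (top ~1%) gates for expression (anti-HA) and reagent binding (streptavidin). Colony PCR, MiSeq 2 × 250 sequencing and CDR-length filtering followed. Labels for polyreactivity reflect the gate of origin.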
With “QVQLVESGGGLVQAGGSLRLSCAASGRTFNNNAMGWYRQAPGKERELVAAITSGGSTNYADSVKGRFTISRDNAKNTVYLQMNSLKPEDTAVYYCNAGYYSRRYYFSGRLDYWGQGTQVTVSS”, the “polyreactivity (PSR sort gate)” value was “low polyreactivity”.

Turning to “QVQLVESGGGLVQAGGSLRLSCAASGRTFNPYVMGWYRQAPGKERELVAVITSSGDSTYYADSVKGRFTISRDNAKNTVYLQMNSLKPEDTAVYYCNADYLYYDYDYWGQGTQVTVSS”, the “polyreactivity (PSR sort gate)” value is reported as “high polyreactivity”. As for “QVQLVESGGGLVQAGGSLRLSCAASGRTFNRNAMGWYRQAPAKERELVAAITSSGGRTYYADSVKGRFTISRDNAKNTVYLQMNSLKPEDTAVYYCNVGPYYPVYLGYLLWYDYWGQGTQVTVSS”, the entry is “high polyreactivity”; as for “QVQLVESGGGLVQAGGSLRLSCAASGRTFNRNAMGWYRQAPGKERELVAAISRGGGGTFYADSVKGRFTISRDNAKNTVYLQMNSLKPEDTAVYYCAAELYYWTYVRFDYWGQGTQVTVSS”, “low polyreactivity”; as for “QVQLVESGGGLVQAGGSLRLSCAASGRTFNRYAMGWYRQAPGKERELVAAINWSGGSTYYADSVKGRFTISRDNAKNTVYLQMNSLKPEDTAVYYCNAGLGKFPVKGGRRYRLDYWGQGTQVTVSS”, “low polyreactivity”. Then “QVQLVESGGGLVQAGGSLRLSCAASGRTFNRYAMGWYRQAPGKERELVAAISGGGSSTSYADSVKGRFTISRDNAKNTVYLQMNSLKPEDTAVYYCAAKYGALRYYNMYYWGQGTQVTVSS”, with “low polyreactivity”; and “QVQLVESGGGLVQAGGSLRLSCAASGRTFNRYVMGWYRQAPGNERELVAALTSSGRTNYADSVKGRFTLSRDNAKNTVYLQMNSLKPEDTAVYYCAKGLYRRYYRVWWLRGDYWGQGTQVTVSS”, with “high polyreactivity”; and “QVQLVESGGGLVQAGGSLRLSCAASGRTFNSYAMGWYRQAPGKERELVAAISRRGGSTYYADSVKGRFTISRDNAKNTVYLQMNSLKPEDTAVYYCASTIVQYISRMDYWGQGTQVTVSS”, with “high polyreactivity”. As for “QVQLVESGGGLVQAGGSLRLSCAASGRTFNTNAMGWYRQAPGKERELVAAISRRSGSTYYADSVKGRFTISRDNAKNTVYLQMNSLKPEDTGVYYCARTAVRKYPYEYWGQGPQVTVSS”, the entry is “high polyreactivity”; as for “QVQLVESGGGLVQAGGSLRLSCAASGRTFNTYAMGWYRQAPGKERELVAAISKRGGSTYYADSVKGRFTISRDNAKNTVYLQMNSLKPEDTAVYYCNAKGNVRMYWGQGTQVTVSS”, “high polyreactivity”.

In the case of “QVQLVESGGGLVQAGGSLRLSCAASGRTFNVNAMGWYRQAPGIERELVATISSAASTNYADSVKGRFTISRDNAKNTVYLQMNSLKPEDTAVYYCNAAFYKEYYYWGQGTQVTVSS”, the “polyreactivity (PSR sort gate)” value is reported as “low polyreactivity”. In the case of “QVQLVESGGGLVQAGGSLRLSCAASGRTFNYYAMAWYRQAPGKERELVAAISYSGGSTYYADSVKGRFTISRDNAKNTVYLQMNSLKPEDTAVYYCAVVIKWRSSYVYSYYYWGQGTQVTVSS”, the “polyreactivity (PSR sort gate)” value is on record as “high polyreactivity”. Take “QVQLVESGGGLVQAGGSLRLSCAASGRTFNYYAMGWYRQAPGKERELVASIRYSTGSTYYADSVKGRFTISRDNAKNTVYLQMNSLKPEDTAVYYCAARRYARASRYDYWGQGTQVTVSS”: the “polyreactivity (PSR sort gate)” value was “high polyreactivity”.

“QVQLVESGGGLVQAGGSLRLSCAASGRTFPAYAMGWYRQAPGKERELVAAISYSGGRTRYADSVKGRFTISRDNAKNTVYLQMNSLKPEDTAVYYCNRVIPTHSLRDYYWGQGSQVTVSS”: the “polyreactivity (PSR sort gate)” value is recorded as “high polyreactivity”.

For the sequence “QVQLVESGGGLVQAGGSLRLSCAASGRTFPAYTMGWYRPAPGKERELVAAIRWSGGRTRYADSVKGRFTISRDNAKNTVYLQMNSLKPEDTAVYYCAAYRLSKPFYKYDYWGQGTQVTVSS”, the “polyreactivity (PSR sort gate)” value is on record as “high polyreactivity”. Then “QVQLVESGGGLVQAGGSLRLSCAASGRTFPAYTMGWYRQAPGKERELVAAINWSGGSTYYADSVKGRFTISRDNAKNTVYLQMNSLKPEDTAVYYCARTSRYYGFRSYGTLDYWGLGTQVTVSS”, with “high polyreactivity”; and “QVQLVESGGGLVQAGGSLRLSCAASGRTFPEYGMGWYRQAPGKEREFVAAISTRGGSTYYANSVKGRFTISRDNAKNTVYLQMNSLKPEDTAVYYCAKVYDRSGGDYWGQGTQVTVSS”, with “low polyreactivity”. Then “QVQLVESGGGLVQAGGSLRLSCAASGRTFPFNAMGWYRQPPGKERELVAVINSGGSTYYADSVKGRFTISRDNAKNTVYLQMNSLKPEDTAVYYCYVKRYLWFTDLLYDYWGQGTQVTVSS”, with “high polyreactivity”.

As for “QVQLVESGGGLVQAGGSLRLSCAASGRTFPFYAMGWYRQAPGKERELVAAINSGGITNYADSVKGRFTISRDNAKYTVYLQMNSLKPEDTAVYYCAAKTAFYRERGYWGQGTQVTVSS”, the “polyreactivity (PSR sort gate)” value is listed as “low polyreactivity”. For the sequence “QVQLVESGGGLVQAGGSLRLSCAASGRTFPFYAMGWYRQAPGKERELVADITSSGGSTYYADSVKGRFTISRDNAKNTVYLQINSLKPEDTAVYYCNKRPWTRFDSGQGTQVTVSS”, the “polyreactivity (PSR sort gate)” value is given as “low polyreactivity”. As for “QVQLVESGGGLVQAGGSLRLSCAASGRTFPFYAMGWYRQAPGKERELVAVITWRGSNTYADSVKGRFTISRDNAKNTVYLQMNSLKPEDTAVYYCSATGGRYIDGYYYWGQGTQVTVSS”, the entry is “high polyreactivity”; as for “QVQLVESGGGLVQAGGSLRLSCAASGRTFPGNAMGWYRQAPGKERELVAAISRRGGTTYYADSVKGRFTITRDNAKNTVYLQMNSLKPEDTAVYYCAKSYRDYGISDFDYWGQGTQVTVSS”, “high polyreactivity”. Consider “QVQLVESGGGLVQAGGSLRLSCAASGRTFPGNSMGWYRQAPGKERELVAAISWSGTRTYYADSVKGRFTISRDNAKNTVYLQMNSLKPEDTAVYYCNVVVKGAWDYYPYDYCGQGTQVTVSS”, for which the “polyreactivity (PSR sort gate)” value is “high polyreactivity”. Then “QVQLVESGGGLVQAGGSLRLSCAASGRTFPGYAMGWYRQAPGKERELVAAISNSGGRTYYADSVKGRFTISRDNAKNTVYLQMNSLKPEDTAVYYCNALGRVRYSPRYGYDYWGQGTQVTVSS”, with “high polyreactivity”; and “QVQLVESGGGLVQAGGSLRLSCAASGRTFPGYAMGWYRQAPGKERELVAAITSSGSSTYYADSVKGRFTISRDNAKNTVYLQMNSLKPEDTAVYYCAAKTSGDYDYWGQGSQVTVSS”, with “low polyreactivity”.

For “QVQLVESGGGLVQAGGSLRLSCAASGRTFPGYAMGWYRQAPGKERELVAGISYRGGSTYYADSVKGRFTISRDNAKNTVYLQMNSLKPEDTAVYYCARDYSRHKGDYWGQGTQVTVSS”, the “polyreactivity (PSR sort gate)” value is reported as “low polyreactivity”. Then “QVQLVESGGGLVQAGGSLRLSCAASGRTFPGYAMGWYRQAPGKERELVAGISYRGGSTYYADSVKGRFTISRDNAKNTVYLQMNSLKPEDTAVYYCNATYGGPYYIQYDYWGQGTQVTVSS”, with “low polyreactivity”; and “QVQLVESGGGLVQAGGSLRLSCAASGRTFPGYAMGWYRQAPGKERELVATITFSDGSTYYADSVKGRFTISRDNAKNSVYLQMNSLKPEDTAVYYCNARRSYFLRYGVNYWGQGTQVTVSS”, with “low polyreactivity”; and “QVQLVESGGGLVQAGGSLRLSCAASGRTFPGYAMGWYRQATGKERELVAGISYRGGSTYYADSVKGRITISRDTAKNTVYFQINSLKPVDTAVYYCARDYSRHKGDYWGQGTQVTVSS”, with “low polyreactivity”. As for “QVQLVESGGGLVQAGGSLRLSCAASGRTFPHYAMGWYRQAPGKVRELVAAISSRGGSTYYADSVKGRFTISRDNVKNTVYLQMNSLKPEDTAVYYCAATVGLYRSREYGYWGQGTQVTVSS”, the entry is “low polyreactivity”.

The record behind these values is the nanobody polyreactivity screen of Harvey et al. (2022).
